Experiments:
[1] = target: T1, recombinant human collagen type II (h Col II) (Homo sapiens, UniProt P02458); assay: KD-determination by ELISA vs human collagen type II; format: binding; conditions: type II collagen; tetramers: of different species
T1 construct: purchased Chondrex CHX-20051
Experimental: (§1) High binding plates (Greiner, 781061) were immobilized with 2.5 μg/ml recombinant human collagen type II (h Col II, Chondrex, CHX-20051), rabbit collagen type II (rbCol II, prepared from rabbit eyes), porcine collagen type II (p Col II, prepared from porcine eyes), human collagen type I, (h Col I, Sigma, C5483-1MG), human collagen type V (h Col V, Abcam, ab7537), human collagen type III (h Col Ill, Abcam, ab7535) and 67B89 (domain of fibronectin, produced in E. coli) respectively over night at 4° C. ELISA-plates were washed 3 times with PBST (PBS+ 0.1% Tween) and blocked with 3% BSA/0.5% Tween/PBS 2 h at RT. After washing with PBST, dilution series of 1.1 μM to 7×10^−4 nM of dimers (CID 211999, CID 212000), dilution series of 100 nM to 7×10^−6 nM of tetramers (CID 212001 and CID 212704) and dilution series of 10 μM to 2 nM of dimer (CID 212705) were incubated on ELISA-plates 1 h at rt. Plates were washed with PBST and incubated with biotinylated anti-StrepTag-ab (Antikörper-online, ABIN1573895) with a dilution of 1:10.000 for 1 h at rt. The binding was visualized with a-rabbit-IgG-HRP (Sigma, A9169) with a dilution of 1:10.000 and as substrate TMB Plus von KEM EN TEC Diagnostic, Kat-Nr. 4395.

[2] = target: T2, human collagen type I (h Col I) (Homo sapiens, UniProt P02452+P08123); assay: ELISA specificity vs human collagen type I; format: binding
T2 construct: purchased Sigma C5483-1MG
T2 sequence (P02452 162-1218 limits assumed): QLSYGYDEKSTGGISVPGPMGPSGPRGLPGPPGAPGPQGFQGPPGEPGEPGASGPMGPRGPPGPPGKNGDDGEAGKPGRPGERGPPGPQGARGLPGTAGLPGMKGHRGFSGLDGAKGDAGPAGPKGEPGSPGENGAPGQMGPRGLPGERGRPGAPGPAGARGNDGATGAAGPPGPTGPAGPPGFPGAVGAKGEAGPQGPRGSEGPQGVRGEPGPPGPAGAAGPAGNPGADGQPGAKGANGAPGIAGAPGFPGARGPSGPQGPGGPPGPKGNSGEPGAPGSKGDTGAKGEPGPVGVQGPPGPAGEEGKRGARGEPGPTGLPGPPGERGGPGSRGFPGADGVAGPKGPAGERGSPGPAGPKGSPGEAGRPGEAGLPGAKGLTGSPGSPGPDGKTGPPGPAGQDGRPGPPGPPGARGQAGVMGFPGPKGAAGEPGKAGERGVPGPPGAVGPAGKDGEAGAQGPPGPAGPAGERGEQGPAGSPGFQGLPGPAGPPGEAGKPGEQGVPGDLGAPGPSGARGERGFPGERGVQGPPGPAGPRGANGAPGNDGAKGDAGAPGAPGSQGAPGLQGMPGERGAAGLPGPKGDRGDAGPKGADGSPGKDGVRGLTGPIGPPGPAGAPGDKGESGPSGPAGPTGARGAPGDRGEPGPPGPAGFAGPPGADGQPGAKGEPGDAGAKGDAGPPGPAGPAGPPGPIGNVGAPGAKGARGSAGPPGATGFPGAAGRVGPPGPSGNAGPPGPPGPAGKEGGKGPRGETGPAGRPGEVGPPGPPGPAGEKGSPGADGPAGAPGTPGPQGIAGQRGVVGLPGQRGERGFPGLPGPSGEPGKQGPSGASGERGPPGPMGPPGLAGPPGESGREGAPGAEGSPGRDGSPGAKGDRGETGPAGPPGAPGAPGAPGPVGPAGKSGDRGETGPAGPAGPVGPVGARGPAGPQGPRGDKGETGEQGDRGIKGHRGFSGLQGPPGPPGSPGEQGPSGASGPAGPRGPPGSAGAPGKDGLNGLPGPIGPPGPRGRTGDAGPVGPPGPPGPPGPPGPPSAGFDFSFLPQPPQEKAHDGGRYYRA
T2 sequence (P08123 80-1119 limits assumed): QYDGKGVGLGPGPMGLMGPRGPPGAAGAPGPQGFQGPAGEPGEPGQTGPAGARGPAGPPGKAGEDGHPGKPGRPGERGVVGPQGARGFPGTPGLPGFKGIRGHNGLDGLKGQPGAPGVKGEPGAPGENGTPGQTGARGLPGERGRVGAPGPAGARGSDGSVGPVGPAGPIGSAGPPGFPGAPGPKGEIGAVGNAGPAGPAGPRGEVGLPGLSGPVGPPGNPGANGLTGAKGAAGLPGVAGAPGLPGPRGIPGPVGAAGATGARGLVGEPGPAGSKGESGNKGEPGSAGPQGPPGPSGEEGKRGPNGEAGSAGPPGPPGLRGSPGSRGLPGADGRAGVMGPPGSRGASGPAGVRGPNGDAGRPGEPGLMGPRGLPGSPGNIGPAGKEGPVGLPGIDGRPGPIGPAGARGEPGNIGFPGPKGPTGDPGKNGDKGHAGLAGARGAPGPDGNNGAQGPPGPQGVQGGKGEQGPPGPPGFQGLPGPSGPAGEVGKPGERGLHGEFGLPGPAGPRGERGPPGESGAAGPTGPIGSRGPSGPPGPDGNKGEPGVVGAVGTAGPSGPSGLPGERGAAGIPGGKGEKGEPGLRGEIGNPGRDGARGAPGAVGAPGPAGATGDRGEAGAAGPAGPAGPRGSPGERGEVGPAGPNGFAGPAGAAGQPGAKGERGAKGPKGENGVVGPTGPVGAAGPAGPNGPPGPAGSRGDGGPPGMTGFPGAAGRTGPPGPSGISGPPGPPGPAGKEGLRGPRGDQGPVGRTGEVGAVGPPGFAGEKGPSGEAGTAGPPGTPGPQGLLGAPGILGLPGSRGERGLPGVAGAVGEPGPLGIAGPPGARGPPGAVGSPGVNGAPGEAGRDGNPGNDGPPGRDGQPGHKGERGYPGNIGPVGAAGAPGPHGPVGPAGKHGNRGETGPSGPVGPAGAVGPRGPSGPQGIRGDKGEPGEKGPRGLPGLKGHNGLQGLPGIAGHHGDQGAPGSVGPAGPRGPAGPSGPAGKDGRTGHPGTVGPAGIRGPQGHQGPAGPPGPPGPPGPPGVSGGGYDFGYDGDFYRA
Experimental: as §1

[3] = target: T3, human collagen type V (h Col V) (Homo sapiens, UniProt P05997+P20908); assay: ELISA specificity vs human collagen type V; format: binding
T3 construct: purchased Abcam ab7537
T3 sequence (P20908 38-1605 limits assumed): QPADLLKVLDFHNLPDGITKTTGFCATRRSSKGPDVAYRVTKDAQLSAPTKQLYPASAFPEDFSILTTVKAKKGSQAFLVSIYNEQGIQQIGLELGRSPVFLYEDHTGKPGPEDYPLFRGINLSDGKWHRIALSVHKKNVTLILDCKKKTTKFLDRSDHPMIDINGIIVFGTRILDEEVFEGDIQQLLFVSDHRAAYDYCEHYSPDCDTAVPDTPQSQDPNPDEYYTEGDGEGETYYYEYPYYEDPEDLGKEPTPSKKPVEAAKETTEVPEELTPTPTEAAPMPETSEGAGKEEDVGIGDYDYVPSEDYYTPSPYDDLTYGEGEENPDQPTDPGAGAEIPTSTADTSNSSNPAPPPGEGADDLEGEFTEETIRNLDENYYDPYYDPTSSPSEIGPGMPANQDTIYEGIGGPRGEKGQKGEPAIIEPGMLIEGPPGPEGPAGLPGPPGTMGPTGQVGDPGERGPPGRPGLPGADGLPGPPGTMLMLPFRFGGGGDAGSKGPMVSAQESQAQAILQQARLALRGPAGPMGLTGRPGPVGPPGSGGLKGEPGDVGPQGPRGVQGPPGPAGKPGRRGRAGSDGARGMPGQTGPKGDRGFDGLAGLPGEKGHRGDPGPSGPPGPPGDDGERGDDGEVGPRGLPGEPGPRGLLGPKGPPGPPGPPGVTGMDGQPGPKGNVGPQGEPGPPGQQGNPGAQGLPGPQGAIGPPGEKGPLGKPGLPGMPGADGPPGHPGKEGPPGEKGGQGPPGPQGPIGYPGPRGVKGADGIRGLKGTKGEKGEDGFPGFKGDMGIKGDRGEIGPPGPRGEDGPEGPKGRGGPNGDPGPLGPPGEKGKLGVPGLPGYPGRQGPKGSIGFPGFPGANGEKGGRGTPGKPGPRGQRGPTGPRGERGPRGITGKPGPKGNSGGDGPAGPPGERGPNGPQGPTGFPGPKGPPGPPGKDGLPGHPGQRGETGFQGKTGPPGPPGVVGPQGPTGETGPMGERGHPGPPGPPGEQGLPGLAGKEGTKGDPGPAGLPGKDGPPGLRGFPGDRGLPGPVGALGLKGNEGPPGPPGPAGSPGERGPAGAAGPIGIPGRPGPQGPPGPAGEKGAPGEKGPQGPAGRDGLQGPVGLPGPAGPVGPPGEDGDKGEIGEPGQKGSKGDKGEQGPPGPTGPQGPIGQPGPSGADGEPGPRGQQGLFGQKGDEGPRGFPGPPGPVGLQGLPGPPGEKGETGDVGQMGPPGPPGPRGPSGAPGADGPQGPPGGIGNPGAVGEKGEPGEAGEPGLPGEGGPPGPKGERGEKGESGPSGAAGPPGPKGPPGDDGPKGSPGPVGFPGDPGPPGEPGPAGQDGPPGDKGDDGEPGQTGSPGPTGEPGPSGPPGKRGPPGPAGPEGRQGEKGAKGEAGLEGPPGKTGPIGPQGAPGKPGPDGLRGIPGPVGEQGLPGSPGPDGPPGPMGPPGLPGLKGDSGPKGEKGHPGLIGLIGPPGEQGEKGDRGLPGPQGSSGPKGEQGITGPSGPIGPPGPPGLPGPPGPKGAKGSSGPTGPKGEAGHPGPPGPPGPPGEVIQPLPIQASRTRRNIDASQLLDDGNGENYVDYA
T3 sequence (P05997 27-1229 limits assumed): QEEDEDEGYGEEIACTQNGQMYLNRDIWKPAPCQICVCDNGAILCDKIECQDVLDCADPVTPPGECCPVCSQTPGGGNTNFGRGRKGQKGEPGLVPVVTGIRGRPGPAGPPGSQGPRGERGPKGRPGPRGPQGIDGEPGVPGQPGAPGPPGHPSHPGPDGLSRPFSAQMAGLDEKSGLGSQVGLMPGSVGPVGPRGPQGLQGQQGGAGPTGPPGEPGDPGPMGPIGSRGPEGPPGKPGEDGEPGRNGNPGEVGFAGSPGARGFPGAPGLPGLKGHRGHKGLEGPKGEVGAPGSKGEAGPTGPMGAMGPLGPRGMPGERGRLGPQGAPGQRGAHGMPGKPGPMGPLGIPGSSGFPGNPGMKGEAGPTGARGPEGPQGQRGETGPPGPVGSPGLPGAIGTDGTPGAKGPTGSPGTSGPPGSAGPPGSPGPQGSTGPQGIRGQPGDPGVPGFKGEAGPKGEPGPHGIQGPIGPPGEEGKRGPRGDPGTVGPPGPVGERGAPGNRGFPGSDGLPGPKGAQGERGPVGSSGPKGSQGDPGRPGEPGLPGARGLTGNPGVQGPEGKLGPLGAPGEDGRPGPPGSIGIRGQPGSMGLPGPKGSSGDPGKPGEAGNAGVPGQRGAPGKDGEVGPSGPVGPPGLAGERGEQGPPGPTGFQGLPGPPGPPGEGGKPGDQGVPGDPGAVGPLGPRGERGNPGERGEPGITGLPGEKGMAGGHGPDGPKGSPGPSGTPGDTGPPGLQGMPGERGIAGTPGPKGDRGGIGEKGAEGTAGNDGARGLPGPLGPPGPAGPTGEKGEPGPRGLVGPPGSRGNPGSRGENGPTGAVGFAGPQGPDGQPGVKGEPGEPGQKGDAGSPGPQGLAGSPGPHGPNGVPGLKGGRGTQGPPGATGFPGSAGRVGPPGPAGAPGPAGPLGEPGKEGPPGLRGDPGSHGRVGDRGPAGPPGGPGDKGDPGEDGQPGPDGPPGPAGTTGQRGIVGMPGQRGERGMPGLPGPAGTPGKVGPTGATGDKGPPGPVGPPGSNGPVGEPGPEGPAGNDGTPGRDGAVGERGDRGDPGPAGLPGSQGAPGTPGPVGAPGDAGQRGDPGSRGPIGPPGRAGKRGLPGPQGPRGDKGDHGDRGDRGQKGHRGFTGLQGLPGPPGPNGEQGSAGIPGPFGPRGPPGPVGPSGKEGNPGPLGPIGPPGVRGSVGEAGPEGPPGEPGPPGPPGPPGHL
Experimental: as §1

[4] = Soluble expression in Escherichia coli BL21(DE3); format: physicochemical; conditions: expression in E. coli BL21(DE3)
Experimental: Variants with affinity tag were expressed in Escherichia coli BL21(DE3) using a low copy plasmid system under regulation of a T7 promoter. Proteins were produced in soluble form after induction by lactose included in the medium (autoinduction medium). BL21 (DE3) competent cells were transformed with the expression plasmid, spread onto selective agar plates (kanamycin) and incubated overnight at 37° C. Precultures were inoculated from single colony in 3 ml 2×YT medium supplemented with 50 μg/ml kanamycin and cultured for 6 hours at 37° C. at 200 rpm in a conventional orbital shaker in culture tubes. […] Cultures were transferred to an orbital shaker and incubated at 30° C. and 200 rpm. Recombinant protein expression was induced by metabolizing glucose and subsequently allowing lactose to enter the cells. Cells were grown overnight for approx. 17 hours to reach a final OD600 of about 2-4. Before the harvest, the OD600 was measured, samples adjusted to 0.6/OD600 were withdrawn, pelleted and frozen at −20° C. To collect biomass cells were centrifuged at 12000×g for 15 min at 22° C. Pellets were weighed (wet weight). Cells were stored at −20° C. before processing.
Proteins with affinity tag were purified by affinity chromatography and size exclusion. After affinity chromatography purification using Strep-Tactin Superflow high capacity cartridges (IBA Lifesciences) a size exclusion chromatography (SEC) was performed using an Äkta system and a Superdex™ 200 HiLoad 16/600 column (Cytiva). Fused variants with Aflibercept were purified via MabSelect SuRe (Cytiva) affinity chromatography followed by a size exclusion chromatography (SEC) using an Äkta system and a Superdex™ 200 HiLoad 16/600 column (Cytiva). All chromatography processing steps were carried out on AKTA systems using matrices from Cytiva. Homogenous species of all purified ligands were obtained; no aggregation was detected. Following SOS-PAGE analysis positive fractions were pooled and their protein concentrations were measured. Further analysis included SOS-PAGE, SE-HPLC and RP-HPLC. Protein concentrations were determined by absorbance measurement at 280 nm using the molar absorbent coefficient. Reversed phase chromatography (RP-HPLC) was performed using a Dionex HPLC system and a PLRP-S (5 μm, 300 Å) column (Agilent). Analytic size exclusion chromatography (SE-HPLC) was performed using a Dionex HPLC system and a Superdex200 increase 5/150 GL (Cytiva). Binding of Collagen II was evaluated by SPR measurements using a Biacore 3000 system. Purified Collagen II was obtained from Chondrex.inc and VEGF-165 was obtained from Millipore. Targets were immobilized on a CM5-Sensor via NHS/EDC chemistry (immobilization level ˜1000 RU). Binding molecules were injected at different concentration and affinity was calculated by langmuir 1:1 binding model.

[5] = system: pig eye sections; assay: Immunohistochemistry staining on pig eye sections; conditions: formalin-fixed paraffin-embedded pig eyes; 5 μM or 500 nM protein, 45 min
Experimental: Sections of formalin-fixed paraffin-embedded pig eyes were deparaffinated with xylol and rehydrated with a descending concentration series of ethanol. For antigen retrieval slices were incubated in TE-buffer, pH 9.0 for 5 min. at 110° C. After blocking of endogenous peroxidases with peroxidase blocking solution (Novolink Polymer™ Detection System, Leica, RE7140-K) slices were incubated with 5 μM or 500 nM of CID 211999 (dimer), CID 212000 (dimer), CID 212001 (tetramer) for 45 min at rt. Subsequently binding of proteins was detected with rabbit-anti-StrepTag-antibody (Genscript, A00026) at a dilution of 1:500 and Novolink Polymer™ Detection System. Anti-Collagen Type II antibody (Abcam, #ab34712) at a dilution of 1:10 served as positive control. Tissue slices were incubated with antibodies for 30 min. Washing steps were performed with TBS pH 7.6. For visualization, AEC-staining (Dako, K3461) was used and after washing with water, nuclei were stained with Mayers Hamalum solution (Merck, 1.09249.0500). Results see FIG. 5.

B1: CID 212000: dimer of SEQ ID NO: 2 (dimer with linker between the monomers) (protein)
chain: IAAKFDEAQSAADSEILHLPNLTEQQRHYFRRWLSDDPSVSTHILTQAQHLNDDQAPKGGGGSGGGGSGGGGSGGGGSIAAKFDEAQSAADSEILHLPNLTEQQRHYFRRWLSDDPSVSTHILTQAQHLNDDQAPKSAWSHPQFEK
modifications: Col2 binding protein (dimer of 211261) (CID212000)
- binding affinity (KD) to type II collagen by ELISA, in words [1]: 1-2-digit nM
- binding to type I collagen (ELISA) [2]: No unspecific binding
- binding to type V collagen (ELISA) [3]: No unspecific binding
- Solubility Soluble expression [4]: 100%
- IHC staining of pig eye sections [5]: staining of retina, inner limiting membrane (arrow) and vitreous body of pig eye
